Assay results from patent US20230015291.

Biological target: rabbit skeletal muscle actin protein (Cytoskeleton, Denver, Colo., Catalog #AKL99-A), P68135

B1: recombinant wild-type human DNase1 (protein)
chain: LKIAAFNIQTFGETKMSNATLVSYIVQILSRYDIALVQEVRDSHLTAVGKLLDNLNQDAPDTYHYVVSEPLGRNSYKERYLFVYRPDQVSAVDSYYYDDGCEPCGNDTFNREPAIVRFFSRFTEVREFAIVPLHAAPGDAVAEIDALYDVYLDVQEKWGLEDVMLMGDFNAGCSYVRPSQWSSIRLWTSPTFQWLIPDSADTTATPTHCAYDRIVVAGMLLRGAVVPDSALPFNFQAAYGLSDQLAQAISDHYPVEVMLK
nuclease activity, SYTOX Green fluorescence assay (RFU over time), 4.5 nM enzyme with or without 40 ug/ml actin: The nuclease activity of the recombinant human DNase1 was inhibited by actin
